Assay [1] deals with plasma fibronectin purified from Fn1^syn/syn mice (pFN^syn) (mouse).
Assay [2] shares this target. The source holds these as a separate data set.
The target is the same in assay [3]. Kind of assay: cross-linking; serum-starved Fn1-KO fibroblasts seeded (15, 30 and 60 min) on pFN-coated glass coverslips, spun or not spun; 1 mM DTSSP 15 min at 4°C; cross-linked fraction released with 25 mM DTT, α5 integrin western blot; cross-linked over total integrin. (A western blot detects proteins with antibodies after separation by electrophoresis.)
Assay [4] has the same target. This is another data set of the same source.

Take “α5β1 integrin, endogenous on mouse cells (Fn1-KO fibroblasts) (from UniProt P11688 45-1053; P09055 21-798) (receptor)”: the adhesion strength (τ50, spinning disk) of Fn1-KO cells on pFN^syn compared to pFN^wt in assay [1] amounted to 16 % decrease. The same substance registered a mean spreading area of Itgb3^-/- platelets seeded for 60 min on pFN^syn in assay [2] of 3.8 μm^2. Moreover, in assay [3], the α5 integrin crosslinked to FN, percent of that on pFN^wt turned out to be 60%. For the same substance, the pY397-FAK level in Fn1-KO cells plated on pFN^syn compared to pFN^wt in assay [4] was 54 % decrease.
“αIIbβ3 integrin on mouse platelets (from UniProt Q9QUM0 32-1033; O54890 26-787) (receptor)” registered an adhesion of wild-type platelets under shear flow (1000/s, 10 min), pFN^syn compared to pFN^wt (fold reduction) in assay [2] of 10.

These data come from PMC5279944.
